Test results reported in patent US20220305128.

Test system: NF-kB (endogenous, A549 cells) (Homo sapiens)
Assay: cell_activity
Details: A549 MTT, 1 pmol RNA transfected; 89% day 1; indirect readout

Sequence “AAAAAAAAAAGAUCUUGAAACUGUUUUAAGGUUGGCCGAUCUUAAAAAA [NF-kB aptamer, circular RNA]” has an activity (% viability day 2) of 86.
